Assay: yeast display, Sf9 membrane polyspecificity reagent, FACS + sequencing; frameworks hold sequencing errors
In short: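 Galactose induction of a Saccharomyces cerevisiae BJ5465 synthetic nanobody display library ran 36–48 hours. The cells were then stained for 1 hour at 4 °C with 10% biotinylated, detergent-solubilized Sf9 membrane reagent, pulled down on streptavidin microbeads and FACS-sorted into low and high (top ~1%) gates on expression and reagent-binding fluorescence. Labels for polyreactivity follow the gate of origin.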

## QVQLVESGGGLVQAGGSLRLSCAASGRIFIGNAMGWYRQAPGKERELVAAISKRGGSTYYADSVKGRFTISRDNAKNTVYLQMNSLKPEDTAVYYCNTESLYREFDDWGQGTQGTVSS
  polyreactivity (PSR sort gate): low polyreactivity

## QVQLVETGGGLVQAGGSLRLSCADSGSICEQYTMGWYRQAPGKERELVAGSSSGGITNYADSVKGRFTISRDNAKNTVYLQMNSLKPEDTAVYYCAADNWYLAEYDYWGEGTQVTVSS
  polyreactivity (PSR sort gate): low polyreactivity

## QVQLEESGGGLVQAGGSLRLSCAASGFTFRLYAMGWYRHAPGKERELFARISSGGSTHYADSVKGRFTISRDNAKNTVFLQMNSLKPEDTAVYYCAAGWGYWRSYGSWGQGTQVTFSS
  polyreactivity (PSR sort gate): high polyreactivity

## QVQLVESGGGLVPAGGSLRLSCAASGFTFSGYAMGWYRQAPGKERELVAAITRRGGSTYYADSVKGRFTISRDNAKNTVYLQMNSLKPEDTAVYYCAADSGYPWELDYWGQGTQVTVSS
  polyreactivity (PSR sort gate): low polyreactivity

## QVQLVESGGGLVQAGGSLRLSCAASGRTFRYNAMGWYRQAPGKERDLVAAISYSGGRTNYADSVKGRFTISRDNAKNTVYLQMNSLKPEDTAVYDCATGYAVYLSRRDYWGQGTQVTVSS
  polyreactivity (PSR sort gate): high polyreactivity

## QVQLVESGGGLVQAGGSLRLSCAASGRTFSPYMGWYRQAPGKERELVAAISKSGGRTYYADSVKGRFTISRDNAKNTVYLQMNSLKPEDTAVYYCANTGNNYYYALYGYWGQGTQVTVSS
  polyreactivity (PSR sort gate): low polyreactivity

## QVQLVESGGGLVQAGGSLRLSCAASGNIFAINAMGWYRQPPGKERELVAAISSRGGSTTYADSVKGRFTISRDIAKNTVYLQMNSLKPEDTAVYDCAADFVRDRFFRYDYWGQGTQVTVSS
  polyreactivity (PSR sort gate): high polyreactivity

## QVQLVESGGALVQAGGSLRLSCAASGRTFAKYAMGWYRQAPGKERELFAAINSSGGSTYYADSVKGRFTISRDNAKNTVYLQMNSLKPEDTAVYYCADLGIGSYRRYSGYDYWGQGTQVTVSS
  polyreactivity (PSR sort gate): low polyreactivity

## QVQLVESGGGLVQAGGSLRLSCAASGRTFRWNAMGWYRPAPGKERELVAAISSGGSTYYADSVKGRFTISRDNAKNTVYLQMNSLKPEDTAVYYCNKYYVRAYDTQEYDYWGQGTQVTVSS
  polyreactivity (PSR sort gate): high polyreactivity

## QVQLVESGGGLVQAGGSLRLSCAASRSIFQSYDMGWYRQAPGKERELVAAISWSGSTTYYADSVKGRFTISRDNAKNTVYLQMNSLKPEDTAVYYCAFDSNTPDWWAVIYGYWGQGTQVTVSS
  polyreactivity (PSR sort gate): low polyreactivity

## QVQLVESRGGLVQAGGSLRLSCAASGSIFYDNAMGWYRQAPWKEREFVAAISLRTGRTYYADSVKGRFTISRDNAKNTVYLQMNSLKPEDTAVFYCAARGYYGPKYYYWGQGTQVTVSS
  polyreactivity (PSR sort gate): high polyreactivity

## QVQLVESGGGLVQAVGSLRLSCAASGSIFVKYAMGWYRQAPGKERELVAALSRSGGSTYYADSVKGRFTISRDNAKNTVYLQMNSLKPEDTEVYYCAATYYKGMNYWGQGTQVTVSS
  polyreactivity (PSR sort gate): high polyreactivity

## QVQLVESGGGLVQAGGSLRLSCAASGSTFTRYGMGWYRQAPGKEREMVAAITTSGSSTYYADSVKGRFTISRDNAKNTVYLQMNSLKPEDTAVYYCAADWSSWGFDYWGQGTQVNVSS
  polyreactivity (PSR sort gate): low polyreactivity

## QVQLVESGGGLVQAGGSLRLSCAASGGTLYRYAMGWYRQAPGKERELVAGISSSGGRTYYADSVKGRFTISRDNAKNTVYLQMNSLKPEDTAVYYCAKYWVSSYDYWGQGNQVTVSS
  polyreactivity (PSR sort gate): high polyreactivity

## QVQLVESGGGLVQAGGSLRLSCAASGRIFDYYAMGWYRQAPGKERELVAAITRGGSTYYADSVKGRFTISRDNAKNTVYLQLNSLNPVDTEVYYCAASIGIRFIKYDYWGQGAQVTVSS
  polyreactivity (PSR sort gate): high polyreactivity

## QVQLVESRGGLVQAGGSLRLTCAASGFTFGFYGMGWYRPAPGKERELVARITWRSGSTYYADSVKGRFTISRDNAKNSVYLKLNSLKPEDTAVYSCAADGFSYYVIRFDYWGQGTQVTVSS
  polyreactivity (PSR sort gate): low polyreactivity

## QVQLVESGGGLVQAGGRLRLSCADSGRTFPLYVMGWYRQAPGKERELVAAISARGGSTYYADSVKGRFTISRDNAKNTVYLQMNSLKPEDTAVYYCATLVTNGRYDSWGQGTQVTVSS
  polyreactivity (PSR sort gate): high polyreactivity

## QVQLVESGGGLVQAGGSLRLSCAASGRIFTKNTKGWYRQAPGKERELVAAIRSRAGSTYYADSVKGRFTISRDNAKNTVYLQMNSLKPEDTAVYYCAVPWFRSVDFDYWGQGTQVTVSS
  polyreactivity (PSR sort gate): low polyreactivity

## QVQLVESGGGLVQAGGSLRLSCDASGRTCFKYAMGWYRQAPGKERELVATITSSGGITYADSVKGRFTISRDNAKNTVYLQMNSLKPEDTAVYYCNARVWVTHYSELNYWGQGTQVTVSS
  polyreactivity (PSR sort gate): low polyreactivity

## QVQLVESGGGLVQAGGSLRLSCAASGFIFNVNAMGWYRQAPGKEREFVAVSTYADSVKGRFTISRDNAKNTVYLQMNSLKPEDTAVYYCAATFVQPVYDYDYWGQGTQVTVSS
  polyreactivity (PSR sort gate): low polyreactivity

## QVQLVESCGGLVQAGGSLRLSCAASGSTFYRNAMGWYRQAPGKEREFVAAISFRGGGTYADSVKGRFTISRDNAKNTVYLQMNSLKPEDTAVYYCAADHLSYRRRYEYWGQGTQVTVSS
  polyreactivity (PSR sort gate): low polyreactivity

## QVQLVESGGALVQAGGSLRLSCAASGSIFRFYAMGWYRQAPGKERELVAAISWSGGSTYYADSVKGRFTISRDNAKNTVYLQMNSLKPEDTAVYYCNTRYYGGFDSWGQGTQVTVSS
  polyreactivity (PSR sort gate): high polyreactivity

## QVQLVESGGGLVQAGGSLRLSCAASGRTFTGNTMGWYRQAPGKERELVAAITKRGGSTYYADSVKGRFTISRDNAKNTVYLQMNSLKPEDTAVYYCAATSGVYRVGIIKYDYWGQGTQVTVSS
  polyreactivity (PSR sort gate): high polyreactivity

## QVQLVESGGGLVQAGGSLRLSCAASGCIFSDSTMGWYRQAPGKERELVAAISGIGGSTYYADSVKGRFTISRDNAKNTVYLQMNSLKPEDTAVYYCAADDYYYPYVSHDYWGQGTQVTVSS
  polyreactivity (PSR sort gate): low polyreactivity

## QVQLQESGGGLVQAGGSLRLSCAASGSISADGAMGWYRQAPGKEREFAASVNWGTNTNYADSVKGRFTISRDNAKNTLYLQMNRLKPEDTAVYYCAVLPDWETRHDYWGHGTQVTVSS
  polyreactivity (PSR sort gate): low polyreactivity

## QVQLVESGGGLVQAGGSLRLSCAASGLIFYRYAMGWYRQAPGKERELVATISSGGSTNYADSVKGRFTISRDNAKNTVYLQMNSLKPEDTAVYYCAASRWLYYYLFEYWGQGTQGTVSS
  polyreactivity (PSR sort gate): high polyreactivity

## QVQLVESGGGLVQAGGSLRLSCAASGSTFAYYAMGLYRQAPGKERELVASISWRGGSTYYADSVKGRFTISRDNAKNTVYLQMNSLKPEVTAVYYCAAGRFYKWSRSQEYDYWGQGTQVTVSS
  polyreactivity (PSR sort gate): low polyreactivity

## QLQLVESGGGLVQAGGSLRLSCAPSGRIFAPYAMGWYIPAPVKERELVAAIRLSGGSTYYADSVKGRFTISRDNAKNTVYLKMNSLKPEDTEVYYCAARYPGVARFYYWGQATQVTVSS
  polyreactivity (PSR sort gate): high polyreactivity

## QVQLVESGGGLVQAGGSLRLSCAASGRIFDRNAMGWYRPSPGTERELLAAIDDSGGDTSYADSVKGRFTISRDNAKNTVYLQMNSLKPEDTAVYYCNAGYADFVTYPRYYYWGQGTQVTVSS
  polyreactivity (PSR sort gate): low polyreactivity

## QVQLVESGGGLVQAGGSLRFSCAASGSTFRPNAMGWYRPAPGKERELVAAISRSGVSTYYADSVKGRFTISRDNAKNTVYLQMNSLKPEDTAVYYCAAKLVVSYGQEYDYWGQGTQVTVSS
  polyreactivity (PSR sort gate): low polyreactivity

## QVQLVESGGGLVQAGGSLRLSCAASGSIFVFNTMGWYRQAPGKERELVAAISDRGTRTYYADSVKGRFTISRDNAKNTVYLQMNSLKPEDTAVYYCATRVYFSPYRYDYWGQGTQVTVSS
  polyreactivity (PSR sort gate): high polyreactivity

## QVQLVESGGGLVQAGGSLRLSCADSGSIFYTYAMGWYRPAPGKERELVAAITRSGGSTNYADSVKGRFTITRDNAKYTVYLQMNSLKPEDNAVYYCAAVFNWAPYFYYYWGQRTQVTVSS
  polyreactivity (PSR sort gate): high polyreactivity

## QVQLVESGGRLVQAGGSLRLSCAASGRTFSVYAMGWYRQAPGKERELVAGITSGGSTNYADSVKGRFTISRDNAKNTVYLQMNSRKPEDTAVYYCAAEIVYAAFGFDSIGDYWGQGTQVTVSS
  polyreactivity (PSR sort gate): low polyreactivity

## QVQLVESGGGLVQAGGSLRLSCAASGSTFVWNAMGWYRQAPGQERELVAAITWSGGSTYYADSVKGRFTISRDNAKNTVYLQMNSLIPEDTAVYYGNAGPVVRRWDAVGYDYWGQGTQVTVSS
  polyreactivity (PSR sort gate): low polyreactivity

## QVQLVESGGGLVQAGGSLRLSCAASGSTFSRNTMGWYRQAPGKERELVAAISKSGGRTYYADSVKGRFTISRDNAKNTVYLQMNSLKPEDTAVYYCNAAVYAYASDYWGQGTQVTVSS
  polyreactivity (PSR sort gate): high polyreactivity

## QVQLVESGGGLVQAGGSLRLSCAASGSIFGAYAMGWYRQAPGKERELVAVIRWGGGSTYADSVKGRFTISRDNAKNTVYLQMNSLKPEDTAVYYCNRDKSWADLYSHAYDYWGQGTQVTVSS
  polyreactivity (PSR sort gate): low polyreactivity

## QVQLVESGGGLVQAGGSLRLSCAASGRIFSDYAMGWYIQAPGKERELVAAISWGGGRTYYADSVKGRFTISRDNAKNTVYLQMNSLKPEDTAVYYCNRGTVNSWARGYWGQGTQVTVSS
  polyreactivity (PSR sort gate): high polyreactivity

## QVQLVESGGGLVQAGGSLRLSCAASGFIFGYYAMGWYRQAPGKERDLVAAITSGTGTNYADSVKGRFTISRDNAKISVYLQMIRLKPEDTAVYYCAAYYTWLSEFGYWGQGTQVTVSS
  polyreactivity (PSR sort gate): low polyreactivity

## QVQLVESGVGLVQAGGSLRLICAASGFIFFGNAMGWYRQAPGKERQLVAVITWSGGSTYADSVKGRFTISRDNAKNTVYLQMNSLKPEDTAVYYCAADQQTWWQYSLINEYDYWGQGTQVTVSS
  polyreactivity (PSR sort gate): low polyreactivity

## QVQLVESGGGLVQAGGSLRLSCAASGSIFRLNTMGWYRQAPGKEMEFVAAISKGGTSTYYADSVKARFTISRDNAKNTVYLQMNSLKPEDTAVYYCAADYYSLYEATTDFDYWGQGTQVTVSS
  polyreactivity (PSR sort gate): high polyreactivity

## QVQLVESGGGLVQAGGSLRLSCAASGSTFSGYMGWNRQAPGKERELVAAITSGGSTNYADSVKGRFTISRDNAENTVYLQMNSLKPEDTAVYYCAAQGRWLGWRGYDYWGLGTQVTVSS
  polyreactivity (PSR sort gate): high polyreactivity

## QVQLVESRGGLVQAGGSLRLSCAASRSIFNINTMGWYRQAPGKERELVAAISYSGGSTYYADSVKGRFTISRDNAKNTVYLQKNSLKREDTAVYYCNVSPTTSGDGGGYDSWGQGTKVTVSS
  polyreactivity (PSR sort gate): low polyreactivity

## QVQLVESGGGLVQAGGSLRLSCASSGLTFHFYTMGWYRQAPGKERELVASITSGGITYYADSVKGRFTISRDNAKNTVYLQMNSLKPEDTAVYYCAATYQFIYTDFDYWGQGTQVTVSS
  polyreactivity (PSR sort gate): high polyreactivity

— the nanobody polyreactivity screen of Harvey et al. (2022)
